US9309315B2, “Therapy with CD4 binding peptides and radiation” (GENMAB A/S, priority 2005, dated 2016)

B1: zanolimumab (antibody, listed as Homo sapiens, V domains shown)
VH: QVQLQQWGAGLLKPSETLSLTCAVYGGSFSGYYWSWIRQPPGKGLEWIGEINHSGSTNYNPSLKSRVTISVDTSKNQFSLKLSSVTAADTAVYYCARVINWFDPWGQGTLVT
VL: DIQMTQSPSSVSASVGDRVTITCRASQDISSWLAWYQHKPGKAPKLLIYAASSLQSGVPSRFSGSGSGTDFTLTISSLQPEDFATYYCQQANSFPYTFGQGTKLEIK
modifications: anti CD4 Vh; anti CD4 VL
notes: anti-CD4 monoclonal human antibody (GenMab, Denmark), same as 6G5 of WO97/13852

Experiments:
Assay type in all cases: cell-based, human
[1] = tested on: Dok-1; experiment: SH2-precipitation (SH2C-RasGAP-GST) and Dok-1 blot of lysates from CD4+ T cells incubated with zanolimumab; details: SH2-precipitate; for amount of precipitated Dok-1 after inhibitor pre-treatment: cells pre-incubated with inhibitor before zanolimumab exposure, FIG. 3D
Description: (§1) FIG. 3 illustrates results from CD4^+ T cells incubated with zanolimumab or a human immunoglobulin negative control. Cell lysates were CD4-precipitated (A), SH2-precipitated (B, D) or used as whole lysate (C). FIG. 3A: Two CD4-precipitates were submitted to a kinase assay (upper two panels). Blots were probed with antibodies to p56^Ick (top panel), the p56^Ick substrate α-casein (second panel), Y-394 phosphorylated p56^Ick (third panel), p56^Ick (fourth panel) or CD4 (bottom panel). The numbers below the blots represent densitometric values normalized for p56^Ick loading. FIG. 3B: Blots with SH2-precipitate were incubated with antibodies to Dok-1 (top panel) or GST (bottom panel). The numbers below the blots represent densitometric values normalized for GST loading. FIG. 3C: Proteins in whole cell lysate were separated by SDS-PAGE and blotted. Membranes were incubated with antibodies to phosphorylated SHIP-1 (top panel) or SHIP-1 regardless of phosphorylation status (bottom panel). The numbers below the blots represent densitometric values normalized for SHIP-1 loading. FIG. 3D: Before zanolimumab exposure, cells were pre-incubated with Src kinase inhibitors PP2 or damnacanthal (DAM). Blots were incubated with antibodies for Dok-1 (top panel) or GST (bottom panel). The numbers below the blots represent densitometric values normalized for GST loading. Results for the experiments shown here are representative of 4 independent experiments.
The activation of inhibitory adaptor molecules in T cells presented in FIG. 3 were obtained with CD4^+ T cells isolated as described in example 1. CD4^+ T cells (3×10E7 cells) were incubated with zanolimumab and, when appropriate, pre-incubated with Src kinase inhibitors PP2 or damnacanthal (Merck Biosciences, Nottingham, UK) before exposure to zanolimumab. Cell lysates were incubated with CD4-precipitating antibody and antibody-bound proteins were precipitated with protein-G sepharose. […] Proteins were detected with an HRP-conjugated secondary antibody, visualized by ECL and quantified using a phosphor-imager.

[2] = tested on: CD4^+ T cells; experiment: Western blotting of T-cell signaling molecules in CD4+ T cells incubated with zanolimumab and stimulated with immobilized CD3 monoclonal antibody (OKT3)
Description: FIG. 2 illustrates results of Western blotting of cell lysates prepared from CD4^+ T cells stimulated with CD3 monoclonal antibody and zanolimumab. CD4^+ T cells were incubated with HuMax-CD4 and then stimulated with CD3 monoclonal antibody (OKT3) immobilized onto latex beads. Proteins in duplicate cell lysate samples were separated by 7-15% gradient gel SDS-PAGE and were transferred onto blotting membranes by electrophoresis. One membrane was incubated with a phosphotyrosine specific antibody, stripped and then re-probed with TCRζ and LAT specific antibodies (FIG. 2A). The other was incubated with antibodies to the phosphorylated form of specific proteins, stripped and then re-probed with ZAP-70 (2B), Erk1/2, p38 and AKT antibodies (2C). The numbers below the blots represent densitometric values normalized for loading relative to values observed after 2 min of CD3-stimulation in the absence of HuMax-CD4. Results for the experiments shown here are representative of 4 independent experiments.
The effect on T-cell signaling molecules upon T-cell activation presented in FIG. 2 were obtained with CD4^+ T cells isolated from peripheral blood from healthy donors. CD4^+ T cells were isolated using enrichment RosetteSep cocktail (Stemcell Technologies Inc, Canada) and separated by lymphoprep (Axis Shield, Poc AS, Norway) density centrifugation. CD4^+ T cells (10^7 cells) were incubated with zanolimumab and then stimulated with CD3 monoclonal antibody (OKT3, available from Orthoclone, Pharmacy, UMC, Utrecht) immobilized onto latex beads. Cell were lysed using lysis buffer (1% Nonidet P-40, 20 mM Tris-HCl, pH 7.4, 150 mM NaCl, 2 mM EGTA, 1 mM Na3VO4, 10 mM NaF, 10 mM sodium pyrophosphate and protease inhibitors (Roche Molecular Biochemicals, Sussex, UK)). Proteins in duplicate cell lysate samples were separated by 7-15% gradient gel SDS-PAGE and transferred onto blotting membranes by electrophoresis. Membranes were incubated with antibodies for specific tyrosine-phosphorylated proteins, stripped and then re-probed with antibodies recognizing the specific proteins regardless of their phosphorylation status. Proteins were detected with an HRP-conjugated secondary antibody, visualized by ECL and quantified using a phosphor-imager.

[3] = tested on: SHIP-1; experiment: Whole cell lysate blot for phosphorylated SHIP-1 in CD4+ T cells incubated with zanolimumab; details: FIG. 3C
Description: as §1, with “FIG. 3D: Before zanolimumab exposure, cells were pre-incubated with Src kinase inhibitors PP2 or damnacanthal (DAM). Blots were incubated with antibodies for Dok-1 (top panel) or GST (bottom panel). The numbers below the blots represent densitometric values normalized for GST loading. Results for the experiments shown here are representative of 4 independent experiments.” left out
The activation of inhibitory adaptor molecules in T cells presented in FIG. 3 were obtained with CD4^+ T cells isolated as described in example 1. […] Proteins were detected with an HRP-conjugated secondary antibody, visualized by ECL and quantified using a phosphor-imager.

| Molecule | amount of precipitated Dok-1 after inhibitor pre-treatment [1] | phosphorylation of Dok-1 ([1]; FIG. 3B) | tyrosine-phosphorylation of intracellular proteins following TCR stimulation ([2]; TCR stimulation via immobilized CD3 monoclonal antibody, FIG. 2A) | phosphorylation of LAT (36-38 kDa) ([2]; after CD3 stimulation, FIG. 2A) | phosphorylation of p21 and p23 phosphorylated isomers of the TCR-ζ chain ([2]; after CD3 stimulation, FIG. 2A) | phosphorylation of ZAP-70 ([2]; after CD3 stimulation, FIG. 2B) | AKT/PKB downstream signaling pathway ([2]; after CD3 stimulation, FIG. 2C) | Erk1/2 downstream signaling pathway ([2]; after CD3 stimulation, FIG. 2C) | p38 serine/threonine downstream signaling pathway ([2]; after CD3 stimulation, FIG. 2C) | inhibition of the very earliest T-cell activation events ([2]; summary of Example 1, densitometry relative to CD3 stimulation without antibody) | phosphorylation of SHIP-1 [3] |
| --- | --- | --- | --- | --- | --- | --- | --- | --- | --- | --- | --- |
| CC(C)(C)n1nc(-c2ccc(Cl)cc2)c2c(N)ncnc21 [PP2] | reduced amount of precipitated Dok-1 | – | – | – | – | – | – | – | – | – | – |
| COc1c(C=O)c(O)cc2c1C(=O)c1ccccc1C2=O [damnacanthal] | reduced amount of precipitated Dok-1 | – | – | – | – | – | – | – | – | – | – |
| B1 | – | induces phosphorylation | generalized inhibition | inhibited | markedly inhibited | inhibition | inhibits | inhibits | inhibits | about 50% | induces phosphorylation |
